In the Human Domainome abundance scans (Beltran et al. 2025):

B1: Max-interacting protein 1, residues 70 to 120; numbered along this chain, P50539 (parent)
chain: STHNELEKNRRAHLRLCLERLKVLIPLGPDCTRHTTLGLLNKAKAHIKKLE
B2: Cyclin-F, residues 28 to 80; numbered along this chain, P41002 (parent)
chain: RNLTILSLPEDVLFHILKWLSVEDILAVRAVHSQLKDLVDNHASVWACASFQE

Variants of: B1
Assay: abundance fitness (aPCA) (normalised: wild type 0, dead -1); higher = more abundant; growth selection in yeast, the domain comes from the species named
Conditions: Homo sapiens

Abundance fitness, by site and new letter:
L18: S -0.455; P -0.542; H -1.12; T -0.824; E -1.07; I -0.295; C -0.61; D -0.625; Q -1.08; Y -0.305; A -0.275; M -0.405; K -0.515; F -0.001; R -0.652
R15: Q -0.369; E -0.476; S -0.231; A -0.211; V -0.678; G -0.383; N -0.777; Y -0.941; K 0.143; C -0.801; F -0.269; L -0.432; D -0.749; W -0.27; H -0.462; M -0.462; T -0.407; P -0.21
T2: V -0.663; S -0.414; P -0.35; I -0.24; W -0.836; M -0.63; D -0.209; F -0.586; R -0.631; C -0.415; K 0.002; H -0.1; G -0.69; N 0.128; A -0.303; Q 0.161; Y -0.088; L -0.519
L14: E -0.645; P -0.064; N -0.735; R -0.447; Y 0.111; T -0.368; S -0.299; D -0.274; H -0.143; A -0.197; M -0.208; C -0.315; W 0.187; F 0.096; V -0.356; K -0.625; G -0.265
E19: K -0.467; C -0.618; N 0.202; L -0.791; W -0.782; S -0.083; H -0.236; T -0.532; I -0.43; D -0.252; M -0.678; P -0.358; A -0.23; F -0.623; Q -0.185; R -0.513; V -0.999
N4: F -0.713; H -0.381; Y -0.547; P -0.276; G -0.223; M -0.289; V -0.404; C -0.33; I 0.278; L -0.48; R -0.255; D -0.134; Q 0.041; K -0.168; A -0.258; E -0.142; T 0.135
C17: F 0.048; I -0.617; S -0.641; M 0.123; P -0.232; N -0.536; Q -0.635; G -0.402; L 0.101; T -0.666; V 0.061; R -0.729; Y -0.284; E -0.681; H -0.683; A -0.193
L6: H 0.519; Y -0.277; Q 0.18; K -0.086; F -0.228; G 0.203; A -0.171; P 0.36; I -0.189; V -0.005; S 0.096; C -0.123; E -0.574; D -0.066; M -0.247; R 0.172; N -0.329; W -0.566; T -0.025
H13: A -0.515; F -0.076; C -0.509; L 0.02; M -0.156; Q -0.086; T -0.353; I -0.447; Y -0.04; P 0.064; D -0.604; V -0.339; N 0.093; S -0.085; G 0.124; K 0.26
E7: K 0.061; F -0.273; I -0.479; Y -0.205; S 0.06; H -0.3; M -0.173; V -0.185; L -0.109; G -0.099; D -0.184; T -0.468; W -0.004; C -0.267; R -0.161; N 0.176; Q -0.169; A -0.263
S1: Y -0.444; D -0.475; E -0.48; G -0.21; L -0.59; A -0.6; C -0.216; R -0.573; W -0.916; H -0.285; T -0.577; N -0.158; M -0.797; F -0.095
R10: S -0.217; Q -0.219; W 0.163; V -0.101; I -0.289; T 0.309; G -0.322; P 0.298; L -0.076; N -0.18; E -0.71; F -0.164; A 0.038; C -0.071; H -0.068; D -0.545
R11: V -0.509; A -0.547; L -0.062; T -0.352; S -0.375; K 0.223; C -0.256; I -0.252; W -0.257; Q -0.281; P -0.105; M -0.261; D -0.19; F -0.396; H -0.13
H3: P 0.018; E -0.047; A -0.099; K 0.178; C 0.021; S 0.065; Y -0.078; V -0.053; D 0.023; W -0.549; Q -0.023; G 0.197; N -0.162; F 0.168; M 0.152
A12: I -0.847; F -0.826; W -0.193; G -0.063; H -0.666; S 0.018; T 0.124; Q -0.305; V -0.438; C -0.426; P -0.102; R -0.327; E -0.432; Y -0.932; L -0.651; N -0.185; K -0.048; D -0.438
K8: R -0.353; Q -0.492; T -0.377; A -0.386; I -0.536; G -0.043; N -0.328; W -0.444; H -0.205; Y -0.619; C -0.278; E -0.291; M -0.511; L -0.232; F -0.236; P -0.451; V -0.338; D -0.568
L16: D -0.037; E 0.102; N -0.069; R 0.165; P -0.126; M -0.001; H -0.55; V -0.058; I -0.133; K 0.022; A -0.05; F -0.207; Y -0.241; C -0.247; G 0.274; S 0.218; W 0.07; Q 0.16
E5: T -0.006; I -0.185; D -0.021; W -0.435; C -0.991; S -0.205; Y -0.069; Q -0.193; M 0.119; N 0.282; P -0.15; K -0.232; F -0.514; R -0.27; G -0.244

Variants of: B2
Assay: as above
Conditions: Homo sapiens

Abundance fitness, by site and new letter:
E53: M -0.39; R -0.068; D -0.178; V -0.538; F -0.582; I -0.533; H -0.878; Q -0.051; A -0.151; S -0.467; T -0.349; L -0.543; C -0.527; P -0.375; G -0.069; K 0.081
Q52: N -0.286; T -0.135; E -0.39; Y -0.382; H -0.108; D -0.296; W -0.19; P -0.377; L -0.07; K 0.011; R -0.02; V -0.123; I -0.109; M -0.256; C -0.213; F -0.241
F51: Y -0.215; W -0.279
